Laboratory results: ChEMBL document CHEMBL2074186

Substrate: Nc1ccc(C(=O)NCC(=O)O)cc1
Assay: cells, lysate or membranes named

B1: Solute carrier family 22 member 6 (Rattus norvegicus) (protein)
chain: MAFNDLLKQVGGVGRFQLIQVTMVVAPLLLMASHNTLQNFTAAIPPHHCRPPANANLSKDGGLEAWLPLDKQGQPESCLRFTSPQWGPPFYNGTEANGTRVTEPCIDGWVYDNSTFPSTIVTEWNLVCSHRAFRQLAQSLYMVGVLLGAMVFGYLADRLGRRKVLILNYLQTAVSGTCAAYAPNYTVYCVFRLLSGMSLASIAINCMTLNVEWMPIHTRAYVGTLIGYVYSLGQFLLAGIAYAVPHWRHLQLVVSVPFFIAFIYSWFFIESARWYSSSGRLDLTLRALQRVARINGKQEEGAKLSIEVLRTSLQKELTLSKGQASAMELLRCPTLRHLFLCLSMLWFATSFAYYGLVMDLQGFGVSMYLIQVIFGAVDLPAKFVCFLVINSMGRRPAQMASLLLAGICILVNGIIPKSHTIIRTSLAVLGKGCLASSFNCIFLYTGELYPTVIRQTGLGMGSTMARVGSIVSPLVSMTAEFYPSMPLFIFGAVPVVASAVTALLPETLGQPLPDTVQDLKSRSRGKQNQQQQEQQKQMMPLQASTQEKNGL
B1 showed a Km of 43.2 µM.
